Target: ornithine decarboxylase (ODC) (UniProt P11926)
Assay: cell-based or functional assay

Sequence of ornithine decarboxylase (ODC) (P11926 whole entry): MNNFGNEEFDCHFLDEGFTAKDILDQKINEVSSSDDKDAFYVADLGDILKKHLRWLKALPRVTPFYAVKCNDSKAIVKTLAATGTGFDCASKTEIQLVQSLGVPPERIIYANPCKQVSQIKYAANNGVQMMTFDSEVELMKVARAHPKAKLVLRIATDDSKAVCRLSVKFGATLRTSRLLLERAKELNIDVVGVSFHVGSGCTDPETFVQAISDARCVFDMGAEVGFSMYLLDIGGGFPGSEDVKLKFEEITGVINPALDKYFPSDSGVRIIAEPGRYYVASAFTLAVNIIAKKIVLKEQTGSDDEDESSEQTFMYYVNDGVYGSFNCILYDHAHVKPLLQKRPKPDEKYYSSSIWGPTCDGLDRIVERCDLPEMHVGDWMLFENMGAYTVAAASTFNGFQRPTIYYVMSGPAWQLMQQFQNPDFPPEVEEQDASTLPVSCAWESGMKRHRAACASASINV

**Q.** How did the decrease in activity of purified ODC (released CO2) after 1 h with 100 µM peptide turn out when “QEP (glutamine-glutamic acid-proline tripeptide)” was run?
**A.** 40%

Reference: patent publication US20170042969A1
